Test results as given in patent US7927849B2, “Laccase enzyme and use thereof” (AB Enzymes OY, priority 2004, dated 2011).

Tests used:
Decolorization of dyes = assay: Decolorization of dyes; design: key: −: no visually detectable change; +: visually detectable fading of the colour; ++: considerable fading of the colour; +++: complete/almost complete decolorization; conditions: dye 12 mg/100 ml, 50° C., pH 6
Procedure: The TaLcc1 laccase preparation from strain RF5597 was tested for its ability to decolourize different dyes in the presence or absence of the methyl syringate mediator (Example 7). The experiments were carried out in 250 ml shake flasks containing 100 ml of dye dissolved in citrate phosphate buffer pH 6. Dye concentration 12 mg/100 ml was used. Enzyme was dosed 200 nkat (or 20 nkat) per 100 ml and the mediator 10 (or 1) mg per 100 ml. The shake flasks were incubated at 50° C. for 30, 90 and 150 minutes. Samples of 3.5 ml were taken in test tubes for visual evaluation.

[1] = Specific activity on guaiacol; format: biochemical; conditions: 25 mM MES buffer, pH 5.5
Procedure: Specific activities of the purified Thielavia laccase were determined towards different laccase substrates.

[2] = Denim bleaching at different pH-values (Launder Ometer); conditions: 50° C.; for Increase of L* / L* after laccase treatment / b* after laccase treatment: 200 nkat/g, 30 min
Procedure: Lee Cooper jeans (Hamilton, 111-1060-55522-65, MASI Company Oy, Finland, former name M.A.S.I. jeans Oy) that were made of ring spun yarn in warp and open-end yarn in weft and were previously desized and treated with neutral ECOSTONE® cellulase were used as a test material. Laccase treatments were performed in LP-2 Launder Ometer as follows. About 10 g of denim swatches (15×14 cm) were loaded into 1.2 liter containers containing 200 ml Mc Ilvaine's citrate phosphate buffer pH 5, 6 or 7 and the containers were temperated. Enzyme with or without the mediator (methyl syringate, DeniLite II Assist, Novozymes) was added. Enzyme was dosed 200 nkat/g and the mediator 10 mg/g on the weight of fabric. […] The Launder Ometer was run at 50° C. for 30 min and after that the temperature in Launder was raised to 80° C. for 10 min. The swatches were rinsed carefully with warm water, dried half-dry in a tumbler and after that air dried.
The bleaching effect was evaluated by measuring the colour as reflectance values with the Minolta Spectrophotometer CM 1000 (Minolta Co.) using L*a*b* color space coordinates (illuminant D65/2°). The colour from both sides of the swatches was measured before and after the laccase treatment. Each measurement was the average of several, at least ten, measurements.

[3] = Redox potential, Pt-AgCl/KCl microelectrode; format: physicochemical; conditions: pH 5.0
Procedure: The purified recombinant Thielavia arenaria TaLcc1 was characterized in terms of pH optimum, thermal stability, and pI as described in Example 2. The molecular weight was determined by MALDI-TOF mass spectrometry on a Ultraflex™ time-of-flight instrument (BrukerDaltonics, Germany) as previously described (Palonen et al., 2003). The redox potential of TaLcc1 was also determined with a combined Pt-AgCl/KCl microelectrode at pH 5.0 according to Sigoillot et al (2004)

[4] = enzyme 20 nkat/100 ml, mediator 0 mg/100 ml
[5] = enzyme 20 nkat/100 ml, mediator 1 mg/100 ml
[6] = enzyme 200 nkat/100 ml, mediator 0 mg/100 ml
[7] = enzyme 200 nkat/100 ml, mediator 10 mg/100 ml

B1: TaLcc1: Recombinant Thielavia arenaria ALKO4197 laccase 1 (SEQ ID NO: 12) produced in Trichoderma reesei strains RF5597/RF5598 (protein)
chain: MKSWAAAVALMVGILSPHAAAAPPANPVQRDMLQVLEARQSGPTCNTPSNRACWTNGFDINTDYEVSTPNTGRTVAYQLTLTEKENWIGPDGVLKNVVMLVNDKIIGPTIRANWGDNIEVTVINNLKTNGTSMHWHGLRQLGNVFNDGANGVTECPIPPKGGRKTYKFRATQYGTSWYHSHFSAQYGNGVVGTIQIDGPASLPYDIDLGVFPLMDYYYRSADELVHFTQSNGAPPSDNVLFNGTARHPETGAGQWYNVTLTPGKRHRLRIINTSTDNHFQVSLVGHNMTVIATDMVPVNAFTVSSLFLAVGQRYDVTIDANSPVGNYWFNVTFGDGLCGSSNNKFPAAIFRYQGAPATLPTDQGLPVPNHMCLDNLNLTPVVTRSAPVNNFVKRPSNTLGVTLDIGGTPLFVWKVNGSAINVDWGKPILDYVMSGNTSYPVSDNIVQVDAVDQWTYWLIENDPTNPIVSLPHPMHLHGHDFLVLGRSPDELPSAGVRHIFDPAKDLPRLKGNNPVRRDVTMLPAGGWLLLAFKTDNPGAWLFHCHIAWHVSGGLSVDFLERPNDLRTQLNSNAKRADRDDFNRVCREWNAYWPTNPFPKIDSGLRHRFVEESEWMVR
modifications: Thielavia arenaria ALKO4197; (1)..(617) Deduced amino acid sequence of Thielavia arenaria ALKO4197 laccase 1 (Ta Lcc1)
Decolorization of Remazol Brilliant Blue, Time 30 min (Decolorization of dyes; [4]): −
Decolorization of Remazol Brilliant Blue, Time 90 min (Decolorization of dyes; [4]): −
Decolorization of Remazol Brilliant Blue, Time 30 min (Decolorization of dyes; [5]): −
Decolorization of Remazol Brilliant Blue, Time 90 min (Decolorization of dyes; [5]): −
Decolorization of Cibacron Brilliant Red 3B-P, Time 30 min (Decolorization of dyes; [6]): −
Decolorization of Cibacron Brilliant Red 3B-P, Time 90 min (Decolorization of dyes; [6]): −
Decolorization of Pontamine Bast Orange GRN, Time 30 min (Decolorization of dyes; [6]): −
Decolorization of Pontamine Bast Orange GRN, Time 90 min (Decolorization of dyes; [6]): −
Decolorization of Remazol Brilliant Blue, Time 30 min (Decolorization of dyes; [6]): −
Decolorization of Remazol Brilliant Blue, Time 90 min (Decolorization of dyes; [6]): −
Decolorization of Cibacron Brilliant Red 3B-P, Time 30 min (Decolorization of dyes; [7]): +++
Decolorization of Cibacron Brilliant Red 3B-P, Time 90 min (Decolorization of dyes; [7]): +++
Decolorization of Pontamine Bast Orange GRN, Time 30 min (Decolorization of dyes; [7]): +
Decolorization of Pontamine Bast Orange GRN, Time 90 min (Decolorization of dyes; [7]): +
Decolorization of Remazol Brilliant Blue, Time 30 min (Decolorization of dyes; [7]): ++
Decolorization of Remazol Brilliant Blue, Time 90 min (Decolorization of dyes; [7]): ++
Specific activity on guaiacol [1]: 61 nkat/mg
Increase of L* ([2]; mediator 0 mg/g, pH 5): 0.14
L* after laccase treatment ([2]; mediator 0 mg/g, pH 5): 28.22
b* after laccase treatment ([2]; mediator 0 mg/g, pH 5): −18.35
Increase of L* ([2]; mediator 0 mg/g, pH 6): 0.82
L* after laccase treatment ([2]; mediator 0 mg/g, pH 6): 29.58
b* after laccase treatment ([2]; mediator 0 mg/g, pH 6): −18.38
Increase of L* ([2]; mediator 0 mg/g, pH 7): 0.37
L* after laccase treatment ([2]; mediator 0 mg/g, pH 7): 27.80
b* after laccase treatment ([2]; mediator 0 mg/g, pH 7): −18.50
Increase of L* ([2]; mediator 10 mg/g, pH 5): 13.52
L* after laccase treatment ([2]; mediator 10 mg/g, pH 5): 42.04
b* after laccase treatment ([2]; mediator 10 mg/g, pH 5): −14.78
Increase of L* ([2]; mediator 10 mg/g, pH 6): 21.19
L* after laccase treatment ([2]; mediator 10 mg/g, pH 6): 48.97
b* after laccase treatment ([2]; mediator 10 mg/g, pH 6): −12.36
Increase of L* ([2]; mediator 10 mg/g, pH 7): 16.92
L* after laccase treatment ([2]; mediator 10 mg/g, pH 7): 44.71
b* after laccase treatment ([2]; mediator 10 mg/g, pH 7): −14.43
optimum pH in denim bleaching ([2]; pH 5 to 7 tested): 6
E^0 [3]: 560 mV
